Source: the nanobody polyreactivity screen of Harvey et al. (2022)

Assay: yeast display, Sf9 membrane polyspecificity reagent, FACS + sequencing; frameworks hold sequencing errors
Summary of the method: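 Polyreactivity labels are assigned by the sorting gate from which each nanobody was recovered. The gates were low and high (top ~1%), set on anti-HA fluorescence for expression and streptavidin fluorescence for reagent binding. Before sorting, galactose-induced (36–48 hours) yeast display cells were stained for 1 hour at 4 °C with 10% biotinylated, detergent-solubilized Sf9 membrane reagent.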

Row | Sequence | polyreactivity (PSR sort gate)
1 | QVQLVESGGGLVQAGGSLRLSCAASGSILTDNAMGWYRQAPGKERELVASITGSGGSTYYADSVKGRFTISRDNAKNTVYLQMNSLKPEDTAVYYCAASYRLRYGYWGQGTQVTVSS | high polyreactivity
2 | QVQLVESGGGLVQAGGSLRLSCAASGSILTDNAMRWYRQAPGKERELVAAITSGGYTYYADSVKGRFTISRDNAKNTVYLHMNILKPEDTAVYYCNADPYTYSYGMYYWGQGTQVTVSS | low polyreactivity
3 | QVQLVESGGGLVQAGGSLRLSCAASGSILTYNAMGWYRQAPGKERELVAAITSSGNTNYADSVKGRFTISRDNAKNTVYLQMNSLKPEDTAVYYCARDLREWGQGTQVTVSS | low polyreactivity
4 | QVQLVESGGGLVQAGGSLRLSCAASGSILWENAMGWYRQAPGKERELVATISVSGGGTYYADSVKGRFTISRDNAKNTVYLQMNSLKPEDTAVYYCAAPGFPSRNGFGYWGQGTQVTVSS | low polyreactivity
5 | QVQLVESGGGLVQAGGSLRLSCAASGSILWEYAMGWYRQAHGKERELVATISSGGCSTNYADSVKGRFTISRDNAKHNFYLPMKSLKPEDTAVYYCNALTSYLVTYEFDSWGIGTQVTVSS | low polyreactivity
6 | QVQLVESGGGLVQAGGSLRLSCAASGSILWLNAMGWYRPAPGKERELVADITRGGSTYYADSVKGRFTISRDNAKNTVYLQMNSLKPEDTAVYYCAADAYTGQIPYYYFEHYYWGQGTQVTVSS | high polyreactivity
7 | QVQLVESGGGLVQAGGSLRLSCAASGSILWQYAMGWYRQAPGKERELVAAISTGGSTYYAESVKGRFTISRDNAKNTVYLQMNSLKPEDTAVYYCAAYVDYSVYFGGGYWGQGTQVTVSS | low polyreactivity
8 | QVQLVESGGGLVQAGGSLRLSCAASGSILYFNAMGWYRQAPGKERELVAAISRTGSRTYYADSVKGRFTISRDNAKNTVYLQMNSLKPEDTAVFYCAAYNGITSHLRFDYWGQGTQVTVSS | high polyreactivity
9 | QVQLVESGGGLVQAGGSLRLSCAASGSILYIYAMGWYRQAPGKERELVAAISKNSADTYYADSVKGRFTISRDNAKNTVYLQMNSLKPEDTAVYYCAADVVKVAAYNYWGQGSQVTVSS | low polyreactivity
10 | QVQLVESGGGLVQAGGSLRLSCAASGSILYIYAMGWYSQAPGKERELVASINSGGSTNYADSVKGRFTISRDNAKNTVYLQMNSLKPEDTAVYYCNADTIPDGEDRYDYWGQGTQVTVSS | low polyreactivity
11 | QVQLVESGGGLVQAGGSLRLSCAASGSILYPYAMGWYRQAPGKERELVAAISRGGSTNYADSVKGRFTISRDNAKNTVYLQMNSLKPEDTAVYYCATAYTRFSQRYEYYVIYWQNDYWGQGTQVTVSS | low polyreactivity
12 | QVQLVESGGGLVQAGGSLRLSCAASGSILYRYTMGWYIQAPGKERELVAAITKRGGRTYYADSVKGRFTISRDTAKNTVYLQMNSLKREDTAVYYCAAKYYTGGSFEMYYWGQGTQVTVSS | high polyreactivity
13 | QVQLVESGGGLVQAGGSLRLSCAASGSILYRYTMGWYRQAPGIERELVAAITKRGGRTYYADSVKGRFTISRDNAKNTVYLQTNSLKPEDTAVYYCAAKYYTGGSFEMYYWGQGTQVTVSS | high polyreactivity
14 | QVQLVESGGGLVQAGGSLRLSCAASGSILYTNAMGWYRQAPGKERELVAAITTSGASTYYADSVKGRFTISRDNAKNTVYLQMNSLKPEDTAVYYCAATDYFPYDTYYAHDYWGQGTQVTVSS | high polyreactivity
15 | QVQLVESGGGLVQAGGSLRLSCAASGSILYVNAMGWYRQATGKERELVAAITRTGGSTYYADSVKGRFTISRDNAKNTVYLQMNSLKPEDTAVYYCNAASSLPGYDYWGQGTQVTVSS | high polyreactivity
16 | QVQLVESGGGLVQAGGSLRLSCAASGSILYVYALAWYRQAPGKERALVAAIYSGASTYYADSVKGRFTISPDNAKNTVYFQMNSLIPEETAVYYCAAYVFFQTYFSYYVEGDYWGQGTQVTVSS | low polyreactivity
17 | QVQLVESGGGLVQAGGSLRLSCAASGSILYVYAMGRYRQAPGKERELVAAISGSGGSTYYADSVKGRFTISRDNAKNTVYLQMNSLKPEDTAVYYCAADYATVTWRGIAYDYWGLGTQVTVSS | low polyreactivity
